Measured values: US20230165967A1 (TAE LIFE SCIENCES, published 2023)
Read-outs that look alike come from different tables or passages of the source.

T1: FcγRIIa (CD32) (Sino Biological, cat #10374-H08H) (UniProt P12318 34-218)
T1 sequence (looked up): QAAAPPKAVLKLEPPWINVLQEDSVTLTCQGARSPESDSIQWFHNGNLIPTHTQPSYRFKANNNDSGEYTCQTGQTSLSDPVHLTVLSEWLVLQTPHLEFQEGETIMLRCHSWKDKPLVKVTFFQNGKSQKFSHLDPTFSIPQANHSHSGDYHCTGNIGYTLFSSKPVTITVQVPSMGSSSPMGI


Legend:
[1] = target: T2, human C1q (sigma Cat #C1740) (human, UniProt P02745 23-245; P02746 28-253; P02747 29-245); assay: ELISA: plate coated with antibody at 1 ug/ml, human C1q titrated 0.625-40 ug/ml, rabbit anti-human C1q then HRP goat anti-rabbit, OD650
Procedure: (§1) Subsequently the plates were washed and blocked with ELISA blocking buffer (PBS containing 1% BSA). […] A slow kinetic substrate solution of tetramethylbenzidine (TMB) was added and the optical density (OD) of the color was measured at 650 nm. The data representing detectable binding of antibodies over the range of test concentrations was analyzed by one-site binding nonlinear regression analysis using GraphPad Prism software.

[2] = target: T1, FcγRIIa (CD32) (Sino Biological, cat …); assay: Sandwich ELISA: anti-His capture of His-tagged FcγRIIA mixed with titrated antibody, HRP goat anti-human IgG Fc, OD650
Procedure: Binding of antibodies to the low affinity FcγRIIA receptor was determined by a modified sandwich format ELISA. […] Wells were then blocked with PBS containing BSA. […] After washing with PBS, a 1:3,000 dilution of horseradish peroxidase (HRP)-labeled goat anti-hIgG Fc, JacksonImmunoResearch) in PBS-T plus 1% BSA was added to detect His-tag captured FcγRIIA and Mab complexes. The results were visualized by the addition of tetramethylbenzidine (TMB) and the optical density (OD) measured at 650 nm. Data representing detectable binding of antibodies to FcγRIIA and captured by anti-his tag Abs over the range of Fc variant test concentrations was analyzed by one-site binding nonlinear regression analysis using GraphPad Prism software.

[3] = target: T3, recombinant human soluble ECD of CD64/FCGRIA (human, UniProt P12314 16-292); assay: ELISA: plate coated with recombinant human CD64/FCGRIA ECD, antibody titrated, HRP goat anti-human Fc, OD650
T3 construct: extracellular domain; also called FcγRI
Procedure: (§2) FcγRI binding was evaluated using an enzyme linked immunoassay (ELISA). Briefly, 96-well ELISA plates were coated with recombinant human soluble ECD of CD64/FCGRIA (Sino Biological, Inc. Beijing, China) in 1×PBS (pH7.4) coating buffer. Subsequently the plates were washed and blocked with ELISA blocking buffer. […] After washing to remove unbound antibodies, the bound antibodies were detected with horseradish peroxidase (HRP) conjugated goat anti-human Fc-specific polyclonal antibody (Jackson ImmunoResearch, West Grove, Pa.). After washing to remove the unbound detection antibody, a slow kinetic substrate solution of tetramethylbenzidine (TMB) was added to the wells where color develops in proportion to the amount of testing samples. The optical density (OD) of the color was measured at 650 nm and was used for determination of the amount of testing samples bound to FcγRI. Detectable binding of antibodies over the range of test concentrations was analyzed using the one-site binding, nonlinear regression analysis with GraphPad Prism.

[4] = target: T4, recombinant human CDH3 full-length (human, UniProt P22223 25-829, limits assumed); assay: ELISA: plate coated with recombinant human full-length CDH3, antibody titrated 0.0003-20 nM, HRP goat anti-human Fc, OD650
T4 construct: plate-coated recombinant protein, not on cells
Procedure: Target antigen binding was evaluated using an enzyme linked immunoassay (ELISA). Briefly, 96-well ELISA plates were coated with 0.05-0.075 ug of recombinant human soluble extracellular domain (ECD) of Her2/ErbB2 or EGFR or Trop2 (Sino Biologicals, Inc, Beijing, China) or 0.075 ug of recombinant human CDH3 full-length (Abnova, Taiwan). Subsequently, the plates were washed and blocked with ELISA blocking buffer. […] After washing to remove unbound detection antibody, a slow kinetic substrate solution of tetramethylbenzidine (TMB) was added to the wells where color develops in proportion to the amount of testing samples. The optical density (OD) of the color was measured at 650 nm and was used for determination of the amount of testing samples bound to the target antigen. Detectable binding of antibodies over the range of test concentrations was analyzed using the one-site binding, nonlinear regression analysis with GraphPad Prism.

[5] = target: T5, recombinant human soluble ECD of hCD16a/FCGRIIIA (human, UniProt P08637 17-208); assay: ELISA: plate coated with recombinant human CD16a/FCGRIIIA ECD, antibody titrated 0.005-80 ug/ml, HRP goat anti-human Fc, OD650
T5 construct: extracellular domain; also called FcγRIIIa

[6] = target: T6, recombinant human FcRn (Sino Biological) (human, UniProt P55899 24-297; P61769 21-119); assay: ELISA at pH 6.0: plate coated with recombinant human FcRn, antibody titrated, HRP goat anti-human Fc, OD650
Procedure: (§3) FcRn binding was evaluated using an enzyme linked immunoassay (ELISA). Briefly, 96-well ELISA plates were coated with of recombinant human FcRn (Sino Biological, Inc, Beijing, China) in 1×PBS (pH 6.0) coating buffer. Subsequently, the plates were washed and blocked with ELISA blocking buffer. […] After washing to remove unbound antibodies, the bound antibodies were detected with horseradish peroxidase (HRP) conjugated goat anti-human Fc-specific polyclonal antibody (Jackson ImmunoResearch, West Grove, Pa.). After washing to remove unbound detection antibody, a slow kinetic substrate solution of tetramethylbenzidine (TMB) was added to the wells where color develops in proportion to the amount of testing samples. The optical density (OD) of the color was measured at 650 nm and was used for determination of the amount of testing samples bound to FcRn. Detectable binding of antibodies over the range of test concentrations was analyzed using the one-site binding, nonlinear regression analysis with GraphPad Prism.

[7] = target: T2, human C1q (sigma Cat #C1740); assay: ELISA: plate coated with antibody at 1 ug/ml, human C1q titrated 0.625-40 ug/ml, rabbit anti-human C1q then HRP goat anti-rabbit, OD650; remark: listed apart in the source
Procedure: as §1

[8] = target: T6, recombinant human FcRn (Sino Biological); assay: ELISA at pH 6.0: plate coated with recombinant human FcRn, antibody titrated, HRP goat anti-human Fc, OD650; remark: listed apart in the source
Procedure: as §3

[9] = target: T3, recombinant human soluble ECD of …; assay: ELISA: plate coated with recombinant human CD64/FCGRIA ECD, antibody titrated, HRP goat anti-human Fc, OD650; remark: listed apart in the source
Procedure: as §2

[10] = target: T5, recombinant human soluble ECD of …; assay: ELISA: plate coated with recombinant human CD16a/FCGRIIIA ECD, antibody titrated 0.005-80 ug/ml, HRP goat anti-human Fc, OD650; remark: listed apart in the source
Procedure: FcγRIIIa binding was evaluated using an enzyme linked immunoassay (ELISA). Briefly, 96-well ELISA plates were coated with of recombinant human soluble ECD of hCD16a/[sequence] (Sino Biological, Inc, Beijing, China) in 1×PBS (pH7.4) coating buffer. Subsequently the plates were washed and blocked with ELISA blocking buffer. […] After washing to remove unbound antibodies, the bound antibodies were detected with horseradish peroxidase (HRP) conjugated goat anti-human Fc-specific polyclonal antibody (Jackson ImmunoResearch, West Grove, Pa.). After washing to remove unbound detection antibody, a slow kinetic substrate solution of tetramethylbenzidine (TMB) was added to the wells where color develops in proportion to the amount of testing samples. The optical density (OD) of the color was measured at 650 nm and was used for determination of the amount of testing samples bound to FcγRIIa. Detectable binding of antibodies over the range of test concentrations was analyzed using the one-site binding, nonlinear regression analysis with GraphPad Prism.

T2 sequence (P02745 23-245 limits assumed, chain 1 of 3): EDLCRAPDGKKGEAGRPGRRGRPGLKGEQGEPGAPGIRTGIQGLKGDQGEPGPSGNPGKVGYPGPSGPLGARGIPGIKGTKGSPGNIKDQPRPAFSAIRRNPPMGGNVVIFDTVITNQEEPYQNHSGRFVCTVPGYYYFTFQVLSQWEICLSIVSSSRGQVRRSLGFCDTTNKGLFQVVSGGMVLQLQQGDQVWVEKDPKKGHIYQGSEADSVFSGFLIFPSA
T2 sequence (P02746 28-253 limits assumed, chain 2 of 3): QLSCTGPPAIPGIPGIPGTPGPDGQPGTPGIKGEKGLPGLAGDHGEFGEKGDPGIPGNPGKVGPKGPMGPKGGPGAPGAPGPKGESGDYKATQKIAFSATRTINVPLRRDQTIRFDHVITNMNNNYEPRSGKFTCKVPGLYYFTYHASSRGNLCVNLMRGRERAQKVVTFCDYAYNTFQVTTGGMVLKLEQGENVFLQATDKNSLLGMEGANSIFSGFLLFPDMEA
T2 sequence (P02747 29-245 limits assumed, chain 3 of 3): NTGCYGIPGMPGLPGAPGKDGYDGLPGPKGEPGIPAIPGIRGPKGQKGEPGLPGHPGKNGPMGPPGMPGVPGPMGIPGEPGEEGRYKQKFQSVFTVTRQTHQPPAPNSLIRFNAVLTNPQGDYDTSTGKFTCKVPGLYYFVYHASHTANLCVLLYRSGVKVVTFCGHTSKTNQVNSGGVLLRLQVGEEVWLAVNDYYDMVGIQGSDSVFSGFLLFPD
T5 sequence (P08637 17-208): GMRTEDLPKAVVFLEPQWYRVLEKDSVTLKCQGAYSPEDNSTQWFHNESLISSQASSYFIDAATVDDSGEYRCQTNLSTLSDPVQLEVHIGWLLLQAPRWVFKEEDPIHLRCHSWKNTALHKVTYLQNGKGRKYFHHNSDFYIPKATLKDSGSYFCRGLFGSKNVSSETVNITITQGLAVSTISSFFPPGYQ
T3 sequence (P12314 16-292): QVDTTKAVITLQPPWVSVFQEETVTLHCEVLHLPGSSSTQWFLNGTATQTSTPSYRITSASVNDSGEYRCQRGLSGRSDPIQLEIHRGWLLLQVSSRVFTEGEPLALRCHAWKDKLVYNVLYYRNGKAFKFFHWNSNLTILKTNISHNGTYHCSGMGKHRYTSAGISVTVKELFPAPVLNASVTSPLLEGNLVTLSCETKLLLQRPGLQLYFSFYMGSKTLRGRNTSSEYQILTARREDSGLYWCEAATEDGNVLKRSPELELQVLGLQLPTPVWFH

binding result [1]	binding result [2]	binding result [3]	EC50 (read off the curve) [4]	binding result [5]	binding result [6]	binding result [7]	binding result [8]	binding result [9]	binding result [10]	Binder
binds	binds	binds	~0.04 nM	no binding (tested: 80 ug/ml)	binds					Anti-CDH3 Ab L234A, L235A, L328C (antibody, human IgG1, kappa, L234A L235A, Fc variant; wild-type light chain; also called Anti-CDH3 Mab triple mutant; triple mutation L234A, L235A, and L328C) heavy: QVQLQQSGPGLVKPSQTLSLTCAISGDSVSSQSAAWNWIRQSPSRGLEWLGRIYYRSKWYNDYALSVKSRITINPDTSKNQFSLQLNSVTPEDTAVYYCARGEGYGREGFAIWGQGTLVTVSSASTKGPSVFPLAPSSKSTSGGTAALGCLVKDYFPEPVTVSWNSGALTSGVHTFPAVLQSSGLYSLSSVVTVPSSSLGTQTYICNVNHKPSNTKVDKRVEPKSCDKTHTCPPCPAPEAAGGPSVFLFPPKPKDTLMISRTPEVTCVVVDVSHEDPEVKFNWYVDGVEVHNAKTKPREEQYNSTYRVVSVLTVLHQDWLNGKEYKCKVSNKACPAPIEKTISKAKGQPREPQVYTLPPSREEMTKNQVSLTCLVKGFYPSDIAVEWESNGQPENNYKTTPPVLDSDGSFFLYSKLTVDKSRWQQGNVFSCSVMHEALHNHYTQKSLSLSPGK light: not shown
						binds	binds	no binding (tested: 30 ug/ml)	no binding (tested: 80 ug/ml)	Anti-EGFR Ab No. 1 L234A, L235A, L328C (antibody, human IgG1, kappa, L234A L235A, Fc variant; wild-type light chain; also called Anti-EGFR Mab No. 1 triple mutant; triple mutation L234A, L235A, and L328C) heavy: QVQLQESGPGLVKPSETLSLTCTVSGGSVSSGDYYWTWIRQSPGKGLEWIGHIYYSGNTNYNPSLKSRLTISIDTSKTQFSLKLSSVTAADTAIYYCVRDRVTGAFDIWGQGTMVTVSSASTKGPSVFPLAPSSKSTSGGTAALGCLVKDYFPEPVTVSWNSGALTSGVHTFPAVLQSSGLYSLSSVVTVPSSSLGTQTYICNVNHKPSNTKVDKKVEPKSCDKTHTCPPCPAPEAAGGPSVFLFPPKPKDTLMISRTPEVTCVVVDVSHEDPEVKFNWYVDGVEVHNAKTKPREEQYNSTYRVVSVLTVLHQDWLNGKEYKCKVSNKACPAPIEKTISKAKGQPREPQVYTLPPSREEMTKNQVSLTCLVKGFYPSDIAVEWESNGQPENNYKTTPPVLDSDGSFFLYSKLTVDKSRWQQGNVFSCSVMHEALHNHYTQKSLSLSPGK light: not shown
